This series is described as follows: soluble on expression in E. coli; label from the status in PepcDB or PDB records.
Take “MKNDVISPEFDENGRPLRRIRSFVRRQGRLTKGQEHALENYWPVMGVEFSEDMLDFPALFGREAPVTLEIGFGMGASLVAMAKDRPEQDFLGIEVHSPGVGACLASAHEEGLSNLRVMCHDAVEVLHKMIPDNSLRMVQLFFPDPWHKARHNKRRIVQVPFAELVKSKLQLGGVFHMATDWEPYAEHMLEVMSSIDGYKNLSESNDYVPRPASRPVTKFEQRGHRLGHGVWDLMFERVK”: the “soluble on expression in E. coli” value is on record as “soluble”.

As for “MKNELICYKQMPVWTKDNLPQMFQEKHNTKVGTWGKLTVLKGKLKFYELTENGDVIAEHIFTPESHIPFVEPQAWHRVEALSDDLECTLGFYCKKEDYFSKKYNTTAIHGDVVDAAKIISPCKVLDLGCGQGRNSLYLSLLGYDVTSWDHNENSIAFLNETKEKENLNISTALYDINAANIQENYDFIVSTVVFMFLNRERVPSIIKNMKEHTNVGGYNLIVAAMSTDDVPCPLPFSFTFAENELKEYYKDWEFLEYNENMGELHKTDENGNRIKMKFATMLARKKLEHHHHHH”, the “soluble on expression in E. coli” value is reported as “not soluble”.

Take “MKNERIEKLQESWELDTRWKGITRPYSAEDVIRLRGSIDIEHTLARRGAEKLWASLHTEDYINALGALTGNQAMQQVKAGLKAIYLSGWQVAADANLSGHMYPDQSLYPANSVPAVVKRINQTLQRADQIQHMEGSGDTDYFVPIVADAEAGFGGQLNVFELMKGMIEAGASGVHFEDQLSSEKKCGHLGGKVLLPTQTAVRNLISARLAADVMGVPTIIVARTDADAADLITSDIDPVDKAFITGERTPEGFYRTKAGLDQAIARGLAYAPYADLVWCETSEPNLEDAKRFADAIHKEHPGKLLAYNCSPSFNWKQKLDEKTIASFQKEIASYGYKFQFVTLAGFHSLNYGMFELARGYKERGMAAYSELQQAEFAAEKHGYSATRHQREVGTGYFDEVAQVITGGTSSTTALKGSTEEAQFTK”: the “soluble on expression in E. coli” value is recorded as “not soluble”. For “MKNIKDEWVQIALDLTSGLSSKDRFERLLSTIRNALKCDASALLLFKNQYFSPLATNGLDGDVIGRRFAISQHPRLEAIARAGDIVRFPSDSDLPDPYDGLIANEERQLQVHSCIGLPLLVNERLIGAVTIDAFDPTQFDSFTNKELRIISALAATSLHTALLMERLENQS” the value was “not soluble”. Next, “MKNIYVETYGCALNRADTYVMMTLLKSEGYNFVENPENADIIILNTCAVRLETEERMKQRIKELNTLSKKLVVAGCMSSAEPATVLSIAPNASLIGPQSVERIVDIVKSEERKIVIEGDRALITPRTFDGKIAIIPVADGCAGNCSFCITKLARRKLRSYPLREIVNAARDAIQSGAREIELTGQDTAAYGLDLGGSISLVDVVNKVADIDGDFMIRIGMMTPEQAMRIMDDLIEAIRNPKVYKFIHLPVQSGDDRVLKLMNRKYTVDEYKELISEIRHKIPFVNITTDIIVGHPGEDEEAFNNTLLLMKELRFERIHLAMYSIRPNTRSASMPQVPDSIKKKRIQIANKLYEDLALSIHLDYVGSTSRVITTELGRKGSVIGRLMNYIPVVIRSENVELGKWYDVKITEASFYDLRGILALEHHHHHH”: “soluble”. Next, “MKNREIYAEMRCIPPVVLRADGRNFKNTLSGLGFEKPYDTTFARAMADTAELFIKKSGLSPYFAYTFSDEISFLFTDLPFDGRVEKIDSVVASFLGSALTIKLRLEAPIAFDSRLVALQKEEVSEYFHWRQLEAWRNFVASWGYYSLRNEGMGKDEAGKFLKGKKEWEIHEMLFERGINLAALPAWQRRGIIISKEECEISGFNPVYGKEVKSMRRRITQNWEIPKFKSEEGITFLEKLINRNMAGDPLEHHHHHH”: “not soluble”; “MKNTFVYQAEKPVIKLLQITDPHLFKDESAELLGVNTQASFAQVLKEIQQENNEFDVILATGDLVQDSSDEGYIRFVEMMKPFNKPVFWIPGNHDFQPKMAEFLNQPPMNAAKHLLLGEHWQALLLDSQVYGVPHGQLSQHQLDLLKETLGKNPERYTLVVLHHHLLPTNSAWLDQHNLRNSHELAEVLAPFTNVKAILYGHIHQEVNSEWNGYQVMATPATCIQFKPDCQYFSLDTLQPGWREIELHSDGSIRTEVKRIQQAEFFPNMQEEGY”: “not soluble”. Take “MKNWIVGMVALVTMVPVMAATPWQKITHPVAGSPQSIGGFANGCVIGAQPLPLESADYQVMRSDQRRYFGHPDLLNFIHRLSAQTHQQQLGTVLIGDMAMPAGGRFSSGHASHQSGLDVDIWLQLPKQRWSQQQLLKPQPIDLVAVDGKRVIPALWQPQIESLIKLAAKDNDVTRIFVNPAIKKQLCLDAGADRQWLHKVRPWFAHRAHMHVRLRCPANSLECVDQDTPPPGDGCGAELESWFQPPPPSAKPGKTLPPPLPPSCQALLDNHFATE”: the “soluble on expression in E. coli” value is “not soluble”. For “MKPATFKEAVVLYEGMIVNQIKKLGIRKDYEEYYQCGLIGLWHAYERFDEKKGYFPAYAVVTVRGYILERLKKEFAVQERCVCVGEYEDIFHFEDVEIRVKDFMSVLDEKEKYIIFERFFVGKTMGEIALETEMTYYQVRWMYRQALEKMRDSVKG” the value was “not soluble”. For “MKPDAHQVKQFLLNLQDTICQQLTAVDGAEFVEDSWQREAGGGGRSRVLRNGGVFEQAGVNFSHVHGEAMPASATAHRPELAGRSFEAMGVSLVVHPHNPYVPTSHANVRFFIAEKPGAEPVWWFGGGFDLTPFYGFEEDAIHWHRTARDLCQPFGEDVYPRYKKWCDDYFYLKHRNEQRGIGGLFFDDLNTPDFDHCFAFMQAVGKGYTDAYLPIVERRKAMAYGERERNFQLYRRGRYVEFNLVWDRGTLFGLQTGGRTESILMSMPPLVRWEYDYQPKDGSPEAALSEFIKVRDWGLEHHHHHH” the value was “not soluble”. For “MKPICIIPARSGSKGLPDKNMLFLSGKPMIFHTIDAAIESGMFDKKDIFVSTDSELYREICLERGISVVMRKPELSTDQATSYDMLKDFLSDYEDNQEFVLLQVTSPLRKSWHIKEAMEYYSSHDVDNVVSFSEVEKHPSLFTTLSDEGYAIDMVGADKGYRRQDLQPLYYPNGAIFISNKETYLREKSFFTSRTYAYQMAKEFSLDVDTRDDFIHVIGHLFFDYAIREKENKVFYKEGYSRLFNREASKIILGDSKTISTSLESYHNYSQGGVTLATMLENLPNFLTANVTEAFVSIGVNDLITGYSVEEIFSNFQKLYSLLAENKIKMRLTTIAYTLFRETVNNADIEKINQWLTEFCYQNQIPLLDINRFLSKDGNLNYHLTSDGLHFTQEANDLLQSQYQLFVDEVKTLLEHHHHHH” the value was “soluble”.

Consider “MKPSTSKTTHSPPPEEPTAPFVNDNLPNPEDEPTIGDLNAFHSGEELHRQRSELARANYEKARPEMIANQRAVTAHLFNRYTEDEERKRVEQQKNKEAMNASTSAPTSSRNGGQSVENRKRRNDVVVAPPTSEEEWKRAQQQHWMGQQQPQMQFQMQQQYHSQQQQYIMMQQQHHHMTGMQQIHHQMPSTSSADSIRSVPTPASSMHQPSPAEMRNGCGMSRNATMDMTCSPMSGGQPIVDENNLAVPEGEWFDKLALAVAEQYNVDTILGPDTYDTFLAELDFSSSESPTKQSPMEMNGDRMPSTAPPPAQNPQHIAQLQQQQNKMRLMQQQQQEMQRIEQQRRQQIMQQQQQQQQQEHQRQQMLLQQQQQQQQMQQHHQMNGGGQFATQAHQQAAYMQQMQRMEQIRHQQQQAQQHQQAQQQHQQQAQHHQMGYGIPNGYPQQMHMHPPAYGAHHMPQPTAFANIN”, for which the “soluble on expression in E. coli” value is “not soluble”. For “MKQHCQKQSTARSTKLQYLAENQNDQPRLLAGSLSHGDSTTGPIKYKDGHQKRTTVVWDGQGTIRDETKSNIIKLTYLYLFPSCGAGSVRELVPFSSYHSFIVTHSTFNITMIALQSKCILPPCLPL” the value was “not soluble”. Next, “MKQLSGLLGELRQKLCAGFPEQAGIQQLIFPAPGLVGRQLLEWLTAQTHFPQFYWRHRDNHEEAAVCGQTRSFADMKDADDFIQQNPDANGLRIWGLNAFEPVMVFGQLTDNGLVSGKNAQASFLFLPRLEILRRGKKTSLTLNLSSETSLQKDALQAITFIDQLMAARALPVLNARIQHSSHTPGYPQWRNLIQQALNDIEQQKLDKVVLARTTTLTLNKPLSCAAFMAASRQVNHRCYHFMLRFDDRQAFLGSSPERLYLRQQLHLETEALAGTVSNLDSDPQAAVLADWLMHDEKNQRENLLVVDDICQRLQGGVTAVDVMPPEIIRLRKVQHLRRRICAQLSRASDTDCLQRLQPTAAVAGLPREAARQFIAKHELFSRGWYAGSAGYLSLKRTEFSVALRSARVDGQQIHLYAGAGIVAGSDAEQEWQEIDNKSAGLQSLLEHEAQPVKA”: “not soluble”. “MKQLSVSLAILCAVATSEAFAADELQQRAQGLFKPVPAKAPTLKGNPASPVKVELGKMLYFDPRLSASHLISCNTCHNVGLGGGDLQATSTGHGWQKGPRNAPTVLNSVFNTAQFWDGRAKDLAEQAKGPVQASVEMNNTPDQVVKTLNSIPDYVALFKKAFPGEKDPVTFDNMAKAIEVFEATLITPDSPFDQYLKGKKKALDGKQTAGLKLFLDKGCVACHGGLNLGGTGYFPFGVVEKPAENILPLGDKGRFAVTNTAKDEYVFRAPSLRNVAITYPYFHSGVVWSLKEAVAVMGSAQFGIKLSDDESEAIAAFLGSLTGKQPKVVYPIMPASTDATPRPRL”: the “soluble on expression in E. coli” value is on record as “soluble”.

As to “MKQPTLAVIMTCHNRRNTTLACLQALYQQKNHFDVYLTDDGSTDGTAEFIKAEYPDVKIFQGDGNLFWVGGMHLAFGEAIKNQYDYYLWLNDDTFLEADALEKLLQVHENLAVEGYGQSIVVGSTQDPITKQATYGGAVKSKKWYSNKFEFLEPTSDVQKCDAMYGNCVLIPHSVTLKVGNIDTAFIHSLGDLDYALRARNLGLEHHHHHH”, the “soluble on expression in E. coli” value is listed as “not soluble”.

For the sequence “MKQQEEHNNKIDLLEKQQAQLKSQLETIQKQQTGIISSTKTLTHVIKSVKDQQNTFIFTEFNPAKTKYFILNNGSVALAGRVLSIDATENGSVIHISLVNLLSTPISNIGFNATWGGEKPVDAKEFARWQQLLFNTSMKSTLKLLPGQWQDINLTLKGVSPNNLGYLKLAINMENIQFDNLPSAENRQKRSKK”, the “soluble on expression in E. coli” value is reported as “not soluble”.

As for “MKQRQWQGWGPGEQAEQQHYLVQPRALAGGGDIRHVSEFLRASGWRDKSKTCGPLLMESPDRTVRVAYDPYILPGGWTIHGRTGAKGEWSAHLGLQTPVEIVAGLTDALTRPRSAHAPSVWEPLQEQNWHTRFADQNYTATSPDGAAWMQYRQDADGSAMWWTGAKDEEGNGWTAHFTPNTPMHLVQAFSTELAGPDPVMRPRGRVPHSAQIRTWSVSVKPSQLSAWQQARITAARAATWARSSTRGTRPRTTARPHTPTGGARTRRLEHHHHHH”, the “soluble on expression in E. coli” value is listed as “not soluble”.

As for “MKQVKIMFLMTMFLGIGLLFFSENAEAAITSNEIGTHDGYDYEFWKDSGGSGSMTLNSGGTFSAQWSNVNNILFRKGKKFDETQTHQQIGNMSINYGATYNPNGNSYLTVYGWTVDPLVEFYIVDSWGTWRPPGGTPKGTINVDGGTYQIYETTRYNQPSIKGTATFQQYWSVRTSKRTSGTISVSEHFRAWESLGMNMGNMYEVALTVEGYQSSGSANVYSNTLTIGGQSGGEQATRVEAESMTKGGPYTSNITSPFNGVALYANGDNVSFNHSFTKANSSFSLRGASNNSNMARVDLRIGGQNRGTFYFGDQYPAVYTINNINHGIGNQLVELIVTADDGTWDAYLDYLEIR”, the “soluble on expression in E. coli” value is given as “soluble”.

With “MKQVLVIKNERSSAKKIVSGLTQEGYFILKLHNENEGLNIIYEQDWDIIILDWDSLSISGPEICRQIRLVKTTPIIIVTDNISSKDCVAGLQAGADDYIRKPFAKEELVARVQAILRRSDCNQQKEINFFQFKDLFVDASSNIVKKGGKNLSLTKREYDLLVFLIKNKNTILSREMLLNQVWGYNIVVNPNVVDLYIGYVRKKLKCEKKERYIQTIHGRGYSMIE”, the “soluble on expression in E. coli” value is “not soluble”.

Source of the values: the DeepSol protein solubility set.
